This is an account of results in publication PMC5389655.

The target of assay [1] is Escherichia coli core RNA polymerase, assembled into synthetic transcription elongation complexes (TECs) (E. coli) (UniProt P0A8V2). Briefly: native gel or EMSA.
The target is the same in assay [2]. The assay is described as follows: native gel or EMSA. The source holds these as a separate data set.
For assay [3] the target is unchanged. Briefly: […]) at 10 nM, […].
The target is the same in assay [4].

A value given as a limit tells only on which side of the number the result lay.

UniProt P0A8V2, sequence (P0A8V2 whole entry, looked up, one chain of several): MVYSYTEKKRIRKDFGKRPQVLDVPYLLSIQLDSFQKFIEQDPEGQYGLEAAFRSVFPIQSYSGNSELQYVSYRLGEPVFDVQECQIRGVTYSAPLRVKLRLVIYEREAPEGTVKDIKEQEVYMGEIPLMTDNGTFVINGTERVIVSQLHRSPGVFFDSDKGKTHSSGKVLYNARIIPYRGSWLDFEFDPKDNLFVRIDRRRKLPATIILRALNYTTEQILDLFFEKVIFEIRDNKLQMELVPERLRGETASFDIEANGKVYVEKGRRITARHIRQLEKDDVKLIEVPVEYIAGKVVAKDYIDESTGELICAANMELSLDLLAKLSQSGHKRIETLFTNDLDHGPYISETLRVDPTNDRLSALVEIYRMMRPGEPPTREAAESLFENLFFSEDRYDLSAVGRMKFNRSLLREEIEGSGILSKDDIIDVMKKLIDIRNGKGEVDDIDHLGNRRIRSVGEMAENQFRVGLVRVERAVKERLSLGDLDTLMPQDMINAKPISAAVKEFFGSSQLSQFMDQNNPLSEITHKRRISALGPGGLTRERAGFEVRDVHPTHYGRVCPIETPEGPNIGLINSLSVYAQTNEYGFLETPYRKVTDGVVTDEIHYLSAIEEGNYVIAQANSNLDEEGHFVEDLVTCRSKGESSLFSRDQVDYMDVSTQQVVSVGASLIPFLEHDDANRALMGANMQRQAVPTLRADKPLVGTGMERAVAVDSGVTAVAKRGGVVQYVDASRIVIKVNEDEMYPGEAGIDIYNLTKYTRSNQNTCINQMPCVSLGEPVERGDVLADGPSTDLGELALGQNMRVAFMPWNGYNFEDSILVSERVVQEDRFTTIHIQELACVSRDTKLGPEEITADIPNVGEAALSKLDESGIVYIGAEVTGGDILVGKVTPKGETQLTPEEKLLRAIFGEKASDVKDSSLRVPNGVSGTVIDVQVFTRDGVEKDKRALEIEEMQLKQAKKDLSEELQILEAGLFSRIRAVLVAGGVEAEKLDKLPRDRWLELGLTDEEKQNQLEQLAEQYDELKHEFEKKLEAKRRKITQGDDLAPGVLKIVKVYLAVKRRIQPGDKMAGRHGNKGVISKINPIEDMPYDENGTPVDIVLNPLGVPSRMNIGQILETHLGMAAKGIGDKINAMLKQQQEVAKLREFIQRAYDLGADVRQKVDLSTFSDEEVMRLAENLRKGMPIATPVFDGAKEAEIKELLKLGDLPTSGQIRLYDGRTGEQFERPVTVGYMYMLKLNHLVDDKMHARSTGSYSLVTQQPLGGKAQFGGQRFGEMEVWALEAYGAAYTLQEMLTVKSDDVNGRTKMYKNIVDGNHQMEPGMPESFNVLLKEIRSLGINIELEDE

In the case of “Escherichia coli σ^38 subunit (stationary phase and stress response σ factor) (from UniProt P13445 1-330) (natural protein)”, the figures for the Kd in assay [1], in assay [2] and in assay [3] were greater than 10000 nM, 900 nM and 330 nM, respectively. The Kd from pausing efficiency in the transcription assay on the '-TG' TEC variant in assay [4] was 525 nM.
